B1: murine monoclonal antibody 16G8 (antibody, V domains shown)
VH: EVQLQESGPGLVKPGASVKISCKASGYSFTGYYMNWVKQSPEKSLEWIGEINPSTGGTTYNQKFKAKATLTVDKSSSTAYMQLKSLTSEDSAVYYCVRYSHYYGSGSWYFDVWGTGTTVTVSS
VL: DIQMTQSPASLSASVGETVTITCRASENIYSNLAWYQQKQGKSPQLLVNAATNLADGVPSRFSGSGSGTQFSLKINSLQPEDFGSYYCQHFYVTPYMFGSGTKLEIKR
notes: also called m16G8
B2: murine monoclonal antibody 2D8 (antibody, V domains shown)
VH: EVQLQESGGELVRPGTSVKISCKASGYTFTNFWLGWIKERPGHGLEWIGDIYPGGHYTNYNENFKGKATLTADTSSNTAYMQVSSLTSEDSAVYFCFTQYYDMDYWGQGTSVTVSS
VL: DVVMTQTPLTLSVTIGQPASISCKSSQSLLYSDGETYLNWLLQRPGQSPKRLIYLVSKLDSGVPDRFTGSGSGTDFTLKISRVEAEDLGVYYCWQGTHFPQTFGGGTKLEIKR
B3: murine monoclonal antibody 17C6 (antibody, V domains shown)
VH: EVQLQESGPGLVQPSQSLSITCTVSGFSLTSYGVHWVRQSPGKGLEWLGVIWSGGSTDYNAAFISRLSISKDNSKSQVFFKMNSLQADDTAIYYCARNWFDYDNYYSMDYWGQGTSVTVSS
VL: DIQMTQTTSSLSASLGDRVTISCRASQDISNYLNWYQQKPDGTVKLLIYYTSRLHSGVPSRFSGSGSGTDFSLTISNQEPEDIATYYCQQYSNLPWTFGGGTKLEIKR
B4: murine monoclonal antibody 8C4 (antibody, V domains shown)
VH: EVQLQESGPELKKPGETVKISCKASGYTFTTYGMSWVKQAPGKGLKWMGRINTYSGVPTYADEFKGRFAFSLENSASTAYLQINNLKNEDTATYFCARGDGGHWFANWGQGTLVTVSA
VL: DIQMTQSPSSLSASLGGKVTITCKASQDINKNIAWYQHKPGKGPRLLIWYKSALQPGIPSRFSGSGSGRDYSFSISNLEPEDIATYSCLQYDNLPPTFGGGTKLEIKR
notes: also called m8C4
B5: murine monoclonal antibody 4B8 (antibody, V domains shown)
VH: EVQLQESGPGILQPSQTLSLTCSFSGFSLRTLGMGVGWIRQSSGKGLEWLAHIWWSDENYYNPALKSRLTISKDTSKNQVFLRIANVDTAETATYYCARIAYDGYFDYWGQGTSLTVSS
VL: KFPSQLLLLLLFGIPGDRVTITCKASEDIYNRLAWYQQKPGNAPRLLISGATSLETGVPSRFSGSGSGKDYTLSITSLQTEDVATYYCQQYWTTPWTFGGGTKLEIKR
notes: also called m4B8

Legend:
SUDV GPdTM = biological target: T1, SUDV GPdTM (Sudan virus (SUDV), UniProt Q66814 33-637)
T1 sequence: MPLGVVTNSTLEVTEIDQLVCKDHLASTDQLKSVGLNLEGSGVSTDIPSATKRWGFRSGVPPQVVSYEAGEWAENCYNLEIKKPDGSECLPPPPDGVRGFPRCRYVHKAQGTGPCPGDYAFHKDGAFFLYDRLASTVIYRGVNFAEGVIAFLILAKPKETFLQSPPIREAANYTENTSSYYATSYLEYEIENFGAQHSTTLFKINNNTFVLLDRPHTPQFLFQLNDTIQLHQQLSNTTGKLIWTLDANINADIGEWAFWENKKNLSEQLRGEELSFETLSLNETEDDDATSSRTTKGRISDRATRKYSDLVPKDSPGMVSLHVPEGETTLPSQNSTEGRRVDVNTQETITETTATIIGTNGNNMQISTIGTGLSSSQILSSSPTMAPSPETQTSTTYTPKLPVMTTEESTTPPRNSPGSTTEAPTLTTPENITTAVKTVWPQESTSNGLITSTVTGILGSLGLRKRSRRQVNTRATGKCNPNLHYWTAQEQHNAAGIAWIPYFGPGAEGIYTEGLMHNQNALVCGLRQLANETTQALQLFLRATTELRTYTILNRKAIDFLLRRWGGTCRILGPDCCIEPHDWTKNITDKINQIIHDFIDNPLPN

SUDV GPddmuc = SUDV GPddmuc (Sudan virus (SUDV), UniProt Q66814 33-632)
MARV GPddmuc = biological target: T2, MARV GPddmuc (Marburg virus (MARV), UniProt P35253 19-637); assay: ELISA, purified GPddmuc immobilized, serial dilutions of purified mouse mAb
T2 construct: also called Marburg virus glycoprotein GPddmuc

Row | Binder | EC50 (SUDV GPdTM) [µg/mL] | EC50 (SUDV GPddmuc) [µg/mL] | binding result (MARV GPddmuc)
1 | B1 | > 10 | – | –
2 | B2 | > 10 | – | –
3 | B3 | 2 | – | –
4 | B4 | 0.15 | – | –
5 | B5 | 0.088 | 0.095 | no binding
